Measured values: paper PMC10090139

Target: endogenous KIT of C57 mouse mast cells (UniProt P05532)
Experiment: immunoprecipitation with anti-Flag antibody and immunoblot, densitometric analysis by ImageJ
Conditions: n = 4, p = 0.0013 (two-tailed unpaired Student's t-test), parent: est. 1.0, read off a plot

Sequence of UniProt P05532 (P05532 25-979): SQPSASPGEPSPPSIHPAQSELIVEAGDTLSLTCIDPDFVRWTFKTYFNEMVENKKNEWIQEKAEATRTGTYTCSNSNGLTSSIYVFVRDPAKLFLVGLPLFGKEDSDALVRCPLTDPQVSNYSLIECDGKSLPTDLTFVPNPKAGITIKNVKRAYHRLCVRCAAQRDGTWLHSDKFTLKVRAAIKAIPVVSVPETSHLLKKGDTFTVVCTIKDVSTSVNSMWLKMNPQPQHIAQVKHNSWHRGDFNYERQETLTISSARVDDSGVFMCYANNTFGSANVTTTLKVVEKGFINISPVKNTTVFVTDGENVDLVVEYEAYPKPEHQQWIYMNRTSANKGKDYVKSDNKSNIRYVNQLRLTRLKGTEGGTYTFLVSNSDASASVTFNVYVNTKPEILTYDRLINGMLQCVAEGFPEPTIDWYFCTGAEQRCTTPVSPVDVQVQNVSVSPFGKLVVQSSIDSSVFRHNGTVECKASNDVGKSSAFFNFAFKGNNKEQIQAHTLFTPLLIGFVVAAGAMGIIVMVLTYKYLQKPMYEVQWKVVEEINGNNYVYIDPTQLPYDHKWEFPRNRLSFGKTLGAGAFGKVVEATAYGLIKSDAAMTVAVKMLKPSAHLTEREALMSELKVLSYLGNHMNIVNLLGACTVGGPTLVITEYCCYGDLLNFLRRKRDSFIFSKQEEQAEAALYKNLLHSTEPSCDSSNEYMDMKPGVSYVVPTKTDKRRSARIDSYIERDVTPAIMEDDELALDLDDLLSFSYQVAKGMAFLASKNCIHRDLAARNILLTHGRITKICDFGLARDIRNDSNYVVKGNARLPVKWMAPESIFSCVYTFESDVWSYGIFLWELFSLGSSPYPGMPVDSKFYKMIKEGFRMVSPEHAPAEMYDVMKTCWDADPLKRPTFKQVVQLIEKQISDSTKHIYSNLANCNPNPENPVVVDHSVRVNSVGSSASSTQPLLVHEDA

ratio to parent: 0.45
Substance: wild-type MCEMP1 with carboxyl-terminal Flag, stably expressed in C57 mouse mast cells (from UniProt Q8IX19) YF
